From doi:10.1101/212704 (bioRxiv, 2017)

B1: GST-MAD1-NTD (domain or fragment, human, UniProt Q9Y6D9 1-485, looked up)
chain: MEDLGENTMVLSTLRSLNNFISQRVEGGSGLDISTSAPGSLQMQYQQSMQLEERAEQIRSKSHLIQVEREKMQMELSHKRARVELERAASTSARNYEREVDRNQELLTRIRQLQEREAGAEEKMQEQLERNRQCQQNLDAASKRLREKEDSLAQAGETINALKGRISELQWSVMDQEMRVKRLESEKQELQEQLDLQHKKCQEANQKIQELQASQEARADHEQQIKDLEQKLSLQEQDAAIVKNMKSELVRLPRLERELKQLREESAHLREMRETNGLLQEELEGLQRKLGRQEKMQETLVGLELENERLLAKLQSWERLDQTMGLSIRTPEDLSRFVVELQQRELALKDKNSAVTSSARGLEKARQQLQEELRQVSGQLLEERKKRETHEALARRLQKRVLLLTKERDGMRAILGSYDSELTPAEYSPQLTRRMREAEDMVQKVHSHSAEMEAQLSQALEELGGQKQRADMLEMELKMLKSQSS

Experiments:
Test in all cases: pull-down
[1] = target: T1, His-tagged MPS1 (UniProt P33981 1-857)
T1 sequence (looked up): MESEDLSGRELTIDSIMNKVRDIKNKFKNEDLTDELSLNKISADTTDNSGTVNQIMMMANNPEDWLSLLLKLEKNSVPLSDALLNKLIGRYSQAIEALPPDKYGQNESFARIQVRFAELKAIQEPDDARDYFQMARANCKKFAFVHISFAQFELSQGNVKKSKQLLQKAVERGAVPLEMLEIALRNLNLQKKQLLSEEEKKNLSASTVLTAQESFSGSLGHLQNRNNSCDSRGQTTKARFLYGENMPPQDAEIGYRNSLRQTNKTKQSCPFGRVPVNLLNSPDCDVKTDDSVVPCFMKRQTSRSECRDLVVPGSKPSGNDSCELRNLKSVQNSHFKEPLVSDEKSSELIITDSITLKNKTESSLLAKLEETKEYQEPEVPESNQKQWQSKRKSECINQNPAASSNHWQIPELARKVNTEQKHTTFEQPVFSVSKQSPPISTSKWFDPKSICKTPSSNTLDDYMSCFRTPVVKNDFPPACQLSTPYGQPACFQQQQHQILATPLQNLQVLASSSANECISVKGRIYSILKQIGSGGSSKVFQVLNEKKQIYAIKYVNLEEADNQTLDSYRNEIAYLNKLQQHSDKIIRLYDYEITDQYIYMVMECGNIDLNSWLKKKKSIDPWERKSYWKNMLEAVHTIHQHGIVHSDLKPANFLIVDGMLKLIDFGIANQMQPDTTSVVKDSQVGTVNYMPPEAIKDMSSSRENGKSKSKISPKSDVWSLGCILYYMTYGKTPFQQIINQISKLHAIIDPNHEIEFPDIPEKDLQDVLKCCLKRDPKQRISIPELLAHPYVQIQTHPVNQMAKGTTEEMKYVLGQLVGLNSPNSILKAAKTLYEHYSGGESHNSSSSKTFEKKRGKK

[2] = target: untagged MAD2^L13A (UniProt Q13257 2-205, L13A)
[3] = target: 6×His-tagged wild type MAD2 (UniProt Q13257 2-205)
[4] = target: B1

B1: binds [1].

B2: GST-MAD1-MIM (domain or fragment, human, UniProt Q9Y6D9 485-584, looked up)
chain: SSAEQSFLFSREEADTLRLKVEELEGERSRLEEEKRMLEAQLERRALQGDYDQSRTKVLHMSLNPTSVARQRLREDHSQLQAECERLRGLLRAMERGGTV
B2: binds [2]; binds [3].

B3: GST-tagged MAD1-CTD globular subdomain (638-718 residues) (domain or fragment, human, UniProt Q9Y6D9 638-718, looked up)
chain: GYQIDITTENQYRLTSLYAEHPGDCLIFKATSPSGSKMQLLETEFSHTVGELIEVHLRRQDSIPAFLSSLTLELFSRQTVA
B3: binds [2].

B4: MAD2^LARQ (L13A/R133E/Q134A) (natural protein, UniProt Q13257 2-205, looked up)
chain: ALQLSREQGITARGSAEIVAEFFSFGINSILYQRGIYPSETFTRVQKYGLTLLVTTDLELIKYLNNVVEQLKDWLYKCSVQKLVVVISNIESGEVLERWQFDIECDKTAKDDSAPREKSQKAIQDEIRSVIEAITATVTFLPLLEVSCSFDLLIYTDKDLVVPEKWEESGPQFITNSEEVRLRSFTTTIHKVNSMVAYKIPVND
B4: binds [4].
